The target of the experiment is T1, alpha1b adrenergic receptor (expressed in Pichia pastoris, membranes) (Homo sapiens (Human)), P35368.
T1 chain: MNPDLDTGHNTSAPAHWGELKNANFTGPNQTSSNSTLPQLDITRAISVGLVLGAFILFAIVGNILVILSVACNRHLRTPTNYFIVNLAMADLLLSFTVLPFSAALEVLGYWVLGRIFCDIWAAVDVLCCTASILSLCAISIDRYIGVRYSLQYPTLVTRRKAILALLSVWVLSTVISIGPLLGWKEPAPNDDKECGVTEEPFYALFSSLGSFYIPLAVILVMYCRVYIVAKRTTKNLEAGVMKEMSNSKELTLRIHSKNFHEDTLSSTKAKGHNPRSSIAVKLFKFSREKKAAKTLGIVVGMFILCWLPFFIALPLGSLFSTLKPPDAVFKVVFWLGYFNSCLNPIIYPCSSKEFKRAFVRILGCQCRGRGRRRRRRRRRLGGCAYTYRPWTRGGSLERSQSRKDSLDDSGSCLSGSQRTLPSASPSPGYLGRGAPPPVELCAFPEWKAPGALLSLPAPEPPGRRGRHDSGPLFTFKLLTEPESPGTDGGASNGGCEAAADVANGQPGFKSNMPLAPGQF
The experiment in a line: displacement of 3H-prazosin (1 nM) from yeast membranes, filtration. On the technique in general: Displacement assays read how much labelled ligand stays bound in the presence of the test substance.

B1: AdTx1 peptide (peptide)
peptide: LTCVTSKSIFGITTEDCPDGQNLCFKRRHYVVPKIYDSTRGCAATCPIPENYDSIHCCKTDKCNE
modifications: not checked
As for B1, the IC50 – broadly, the concentration at which inhibition is half-maximal – worked out at 2300 nM.

(Values after US20110117017A1, “PEPTIDES WITH PROPERTIES OF AN […] FOR THE ALPHA 1A […] RECEPTOR AND USES THEREOF” (priority 2006, published 2011).)
